What was measured:
[1] = target: Manduca sexta brush border membrane vesicles (BBMV); test: micropanning on 100 µg of BBMV; control sample, set to 1.0 by definition
[2] = target: Bovine serum albumin (bovine) (UniProt P02769); test: micropanning in microtiter wells; control sample, set to 1.0 by definition
[3] = target: Manduca sexta brush border membrane vesicles (BBMV); test: 125I-labelled phage added to 10 µg of BBMV, no competitor, 105,252 cpm added
[4] = target: Manduca sexta brush border membrane vesicles (BBMV); test: micropanning on 100 µg of BBMV with an excess of free Cry1Ac as competitor, yield relative to BBMV without competitor
[5] = target: Manduca sexta brush border membrane vesicles (BBMV); test: 125I-labelled phage added to 10 µg of BBMV with 100-fold excess of unlabeled Cry1Ac, 105,252 cpm added
[6] = target: Manduca sexta brush border membrane vesicles (BBMV); test: 125I-labelled phage on 10 µg of BBMV, competitor 100-fold excess of unlabeled Cry1Ac
[7] = target: Manduca sexta brush border membrane vesicles (BBMV); test: 125I-labelled phage added to 10 µg of BBMV with 100-fold excess of unlabeled Cry1Ac
[8] = target: Manduca sexta brush border membrane vesicles (BBMV); test: 125I-labelled phage added to 10 µg of BBMV, no competitor
[9] = target: Manduca sexta brush border membrane vesicles (BBMV); test: 125I-labelled control phage added to 10 µg of BBMV with 100-fold excess of unlabeled Cry1Ac, 62,319 cpm added
[10] = target: Manduca sexta brush border membrane vesicles (BBMV); test: 125I-labelled control phage added to 10 µg of BBMV, no competitor, 62,319 cpm added
[11] = target: Manduca sexta brush border membrane vesicles (BBMV); test: 125I-labelled control phage added to 10 µg of BBMV, no competitor
[12] = target: Manduca sexta brush border membrane vesicles (BBMV); test: 125I-labelled control phage added to 10 µg of BBMV with 100-fold excess of unlabeled Cry1Ac
[13] = target: Manduca sexta brush border membrane vesicles (BBMV); test: 125I-labelled toxin added to 10 µg of BBMV, no competitor, 98,242 cpm added
[14] = target: Manduca sexta brush border membrane vesicles (BBMV); test: 125I-labelled toxin added to 10 µg of BBMV with 100-fold excess of unlabeled Cry1Ac, 98,242 cpm added
[15] = target: Manduca sexta brush border membrane vesicles (BBMV); test: 125I-labelled toxin added to 10 µg of BBMV, no competitor
[16] = target: Manduca sexta brush border membrane vesicles (BBMV); test: 125I-labelled toxin added to 10 µg of BBMV with 100-fold excess of unlabeled Cry1Ac
[17] = target: Manduca sexta brush border membrane vesicles (BBMV); test: 125I-labelled toxin on 10 µg of BBMV, competitor 100-fold excess of unlabeled Cry1Ac

Bovine serum albumin (bovine), sequence (P02769 25-607 limits assumed): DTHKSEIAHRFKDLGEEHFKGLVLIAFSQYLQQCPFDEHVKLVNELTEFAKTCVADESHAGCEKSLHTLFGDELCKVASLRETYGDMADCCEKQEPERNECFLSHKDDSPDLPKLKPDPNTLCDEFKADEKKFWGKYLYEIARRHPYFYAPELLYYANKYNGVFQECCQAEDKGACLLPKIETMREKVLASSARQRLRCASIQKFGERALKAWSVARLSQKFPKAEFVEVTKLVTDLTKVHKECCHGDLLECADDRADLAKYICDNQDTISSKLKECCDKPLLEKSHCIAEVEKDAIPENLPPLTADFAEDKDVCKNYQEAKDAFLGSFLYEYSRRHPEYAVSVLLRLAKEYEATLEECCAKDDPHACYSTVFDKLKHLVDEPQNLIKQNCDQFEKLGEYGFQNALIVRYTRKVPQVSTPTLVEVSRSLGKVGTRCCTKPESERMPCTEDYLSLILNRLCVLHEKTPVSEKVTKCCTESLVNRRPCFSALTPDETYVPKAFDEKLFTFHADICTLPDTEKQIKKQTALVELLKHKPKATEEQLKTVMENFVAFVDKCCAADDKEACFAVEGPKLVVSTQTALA

1Ac-fUSE5 phage (filamentous fd phage displaying the Cry1Ac-cpIII fusion protein) (from UniProt P05068 1-611; P03661 48-424)
relative yield (relative to control sample) [1]: 1
relative yield (relative to control sample) [2]: 1
mean cpm bound (n = 2) [3]: 12300 cpm
relative yield (relative to control sample) [4]: 1.7
mean cpm bound (n = 2) [5]: 11200 cpm
% competition [6]: 8.5%
% cpm bound [7]: 10.7%
% cpm bound [8]: 11.7%

WT-fUSE5 phage (fUSE5 vector phage without insert, grown in JM109) (from UniProt P03661 19-424)
mean cpm bound (n = 2) [9]: 4740 cpm
relative yield (relative to control sample) [1]: 1
relative yield (relative to control sample) [2]: 1
relative yield (relative to control sample) [4]: 0.24
mean cpm bound (n = 2) [10]: 3780 cpm
% cpm bound [11]: 6.1%
% cpm bound [12]: 7.6%

purified, trypsin-activated HD-73 Cry1Ac toxin (65 kDa) from Bacillus thuringiensis subsp. kurstaki (from UniProt P05068 29-623)
mean cpm bound (n = 2) [13]: 12700 cpm
mean cpm bound (n = 2) [14]: 4260 cpm
% cpm bound [15]: 12.9%
% cpm bound [16]: 4.3%
% competition [17]: 66.5%
